{
  "source": "paper PMC9750192",
  "key": {"[1]": {"target": "GMPCPP-stabilized HeLa cell microtubules (human (endogenous in HeLa)) (UniProt P68363)", "assay": "cryo-EM structure"}, "[2]": {"target": "GMPCPP-stabilized HeLa cell microtubules (human (endogenous in HeLa)) (UniProt P68363)", "assay": "cryo-EM structure", "remark": "listed apart in the source"}, "[3]": {"target": "Taxol-stabilized microtubules enriched in tyrosinated HeLa tubulin (human (endogenous in HeLa) | not stated) (UniProt P68363)", "sequence (P68363 whole entry, chain 1 of 2)": "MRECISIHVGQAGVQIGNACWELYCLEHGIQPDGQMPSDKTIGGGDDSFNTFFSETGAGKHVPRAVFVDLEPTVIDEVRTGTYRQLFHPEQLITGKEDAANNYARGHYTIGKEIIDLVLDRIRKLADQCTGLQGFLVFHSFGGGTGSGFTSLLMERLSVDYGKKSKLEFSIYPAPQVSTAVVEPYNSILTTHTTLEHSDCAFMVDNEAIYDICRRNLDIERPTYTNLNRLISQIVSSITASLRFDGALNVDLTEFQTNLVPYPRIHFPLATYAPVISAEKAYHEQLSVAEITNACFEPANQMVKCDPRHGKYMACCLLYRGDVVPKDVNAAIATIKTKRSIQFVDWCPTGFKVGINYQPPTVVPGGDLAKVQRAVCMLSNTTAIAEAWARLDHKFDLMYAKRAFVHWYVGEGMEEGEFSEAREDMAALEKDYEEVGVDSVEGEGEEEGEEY", "sequence (P07437 whole entry, chain 2 of 2, further chain)": "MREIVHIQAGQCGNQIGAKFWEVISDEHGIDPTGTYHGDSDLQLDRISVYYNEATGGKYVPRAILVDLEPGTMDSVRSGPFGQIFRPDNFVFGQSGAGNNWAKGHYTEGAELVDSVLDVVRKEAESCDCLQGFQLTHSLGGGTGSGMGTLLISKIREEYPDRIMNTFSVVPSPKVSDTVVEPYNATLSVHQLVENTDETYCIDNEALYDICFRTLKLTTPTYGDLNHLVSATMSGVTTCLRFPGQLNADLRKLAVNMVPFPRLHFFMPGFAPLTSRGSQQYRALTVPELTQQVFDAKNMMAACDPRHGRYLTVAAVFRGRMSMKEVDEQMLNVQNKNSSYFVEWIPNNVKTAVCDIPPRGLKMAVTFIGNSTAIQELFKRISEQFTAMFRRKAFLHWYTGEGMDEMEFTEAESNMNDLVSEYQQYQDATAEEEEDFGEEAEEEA", "assay": "single-molecule TIRF microscopy"}, "[4]": {"target": "Taxol-stabilized microtubules enriched in detyrosinated HeLa tubulin (human (endogenous in HeLa) | not stated) (UniProt P68363)", "sequence (P68363 1-450, chain 1 of 2)": "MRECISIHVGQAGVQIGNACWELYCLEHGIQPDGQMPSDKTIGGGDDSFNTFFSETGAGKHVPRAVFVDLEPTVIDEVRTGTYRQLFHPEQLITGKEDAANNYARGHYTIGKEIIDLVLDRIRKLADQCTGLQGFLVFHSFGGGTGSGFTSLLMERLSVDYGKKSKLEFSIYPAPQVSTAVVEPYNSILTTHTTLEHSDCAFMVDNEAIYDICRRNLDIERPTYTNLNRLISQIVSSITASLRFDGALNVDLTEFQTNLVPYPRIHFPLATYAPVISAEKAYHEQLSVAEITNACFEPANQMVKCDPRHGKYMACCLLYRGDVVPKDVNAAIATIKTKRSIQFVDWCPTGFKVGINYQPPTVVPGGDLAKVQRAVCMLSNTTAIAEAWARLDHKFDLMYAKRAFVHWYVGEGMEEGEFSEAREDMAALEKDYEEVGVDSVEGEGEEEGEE", "sequence (P07437 whole entry, chain 2 of 2, further chain)": "as the sequence (P07437 whole entry, chain 2 of 2, further chain) above", "assay": "single-molecule TIRF microscopy"}, "[5]": {"target": "Taxol-stabilized microtubules enriched in tyrosinated HeLa tubulin (human (endogenous in HeLa) | not stated) (UniProt P68363)", "assay": "single-molecule TIRF microscopy", "remark": "listed apart in the source"}, "[6]": {"target": "Taxol-stabilized microtubules enriched in tyrosinated HeLa tubulin (human (endogenous in HeLa) | not stated) (UniProt P68363)", "assay": "single-molecule TIRF microscopy", "remark": "listed apart in the source"}, "[7]": {"target": "Taxol-stabilized microtubules enriched in tyrosinated HeLa tubulin (human (endogenous in HeLa) | not stated) (UniProt P68363)", "assay": "single-molecule TIRF microscopy", "remark": "listed apart in the source"}, "[8]": {"target": "Taxol-stabilized microtubules enriched in detyrosinated HeLa tubulin (human (endogenous in HeLa) | not stated) (UniProt P68363)", "assay": "single-molecule TIRF microscopy", "remark": "listed apart in the source"}, "[9]": {"target": "Taxol-stabilized microtubules enriched in tyrosinated HeLa tubulin (human (endogenous in HeLa) | not stated) (UniProt P68363)", "assay": "single-molecule TIRF microscopy", "remark": "listed apart in the source"}},
  "note": "Where “and” joins values, the source holds several entries; their conditions need not be identical. Equal entries are not always repeated. Where two headings read alike, the source gives them in different places.",
  "data": [
    {"substance": "catalytically dead VASH2(Cys158Ala)–SVBP complex for cryo-EM (from UniProt Q86V25 1-355; Q8N300 1-66)", "values": [
      {"measurement": "occupancy of the binding sites on the microtubule", "setting": "[1]", "result": 50.9, "unit": "%"},
      {"measurement": "occupancy of the binding sites on the microtubule", "setting": "[2]", "result": 40, "unit": "%"}
    ]},
    {"substance": "catalytically dead full-length sfGFP-VASH1(C169A)–SVBP complex (from UniProt Q7L8A9-1 1-365; Q8N300 1-66)", "values": [
      {"measurement": "binding frequency (min^−1.nM^−1.µm^-1)", "setting": "[3]", "result": 86.4},
      {"measurement": "residence time τ", "setting": "[4]", "result": 0.6, "unit": "s"},
      {"measurement": "binding frequency (min-1.nM^−1.µm^−1)", "setting": "[5]", "result": 80.4},
      {"measurement": "binding frequency (min^−1.nM^−1.µm^-1)", "setting": "[5]", "result": 132},
      {"measurement": "mean covering of the microtubule surface during a 45 s movie", "setting": "[5]", "result": 82, "unit": "%"},
      {"measurement": "residence time τ", "setting": "[5]", "result": "1 s and 1.2 s"}
    ]},
    {"substance": "catalytically dead full-length sfGFP-VASH2(C158A)–SVBP complex (from UniProt Q86V25-1 1-355; Q8N300 1-66)", "values": [
      {"measurement": "binding frequency (min^−1.nM^−1.µm^-1)", "setting": "[5]", "result": 13.9},
      {"measurement": "mean covering of the microtubule surface during a 45 s movie", "setting": "[5]", "result": 28, "unit": "%"},
      {"measurement": "residence time τ", "setting": "[5]", "result": "> 14.6", "unit": "s"}
    ]},
    {"substance": "dead VASH1 core domain (sfGFP-VASH1 57–307 C169A) in complex with SVBP (from UniProt Q7L8A9-1 57-307; Q8N300 1-66)", "values": [
      {"measurement": "binding frequency (min-1.nM^−1.µm^−1)", "setting": "[5]", "result": 70.7}
    ]},
    {"substance": "full-length sfGFP-VASH1–SVBP complex (from UniProt Q7L8A9-1 1-365; Q8N300 1-66)", "values": [
      {"measurement": "binding frequency (min^−1.nM^−1.µm^-1)", "setting": "[3]", "result": 51.6},
      {"measurement": "residence time τ", "setting": "[3]", "result": 0.8, "unit": "s"},
      {"measurement": "residence time τ", "setting": "[6]", "result": 1.2, "unit": "s"},
      {"measurement": "binding frequency (min^−1.nM^−1.µm^-1)", "setting": "[7]", "result": 3},
      {"measurement": "residence time τ", "setting": "[7]", "result": 0.2, "unit": "s"},
      {"measurement": "residence time τ", "setting": "[4]", "result": 0.5, "unit": "s"},
      {"measurement": "binding frequency (min^−1.nM^−1.µm^-1)", "setting": "[5]", "result": 80.8},
      {"measurement": "mean covering of the microtubule surface during a 45 s movie", "setting": "[5]", "result": 75, "unit": "%"},
      {"measurement": "residence time τ", "setting": "[5]", "result": "0.5 s and 0.8 s"}
    ]},
    {"substance": "full-length sfGFP-VASH2–SVBP complex (from UniProt Q86V25-1 1-355; Q8N300 1-66)", "values": [
      {"measurement": "residence time τ", "setting": "[6]", "result": "> 12.9", "unit": "s"},
      {"measurement": "residence time τ", "setting": "[8]", "result": 0.6, "unit": "s"},
      {"measurement": "residence time τ", "setting": "[9]", "result": 0.9, "unit": "s"},
      {"measurement": "residence time τ", "setting": "[7]", "result": 3.9, "unit": "s"},
      {"measurement": "binding frequency (min^−1.nM^−1.µm^-1)", "setting": "[5]", "result": 13},
      {"measurement": "mean covering of the microtubule surface during a 45 s movie", "setting": "[5]", "result": 25, "unit": "%"},
      {"measurement": "residence time τ", "setting": "[5]", "result": "> 11", "unit": "s"}
    ]}
  ]
}
